Values belong to the binder of their own block, whether it stands above or below them. Where no end group is shown, it is not given here.
Tests used:
[1] = target: T1, human O-GlcNAc transferase, truncated (315-1031), as it stands in the substrate:OGT fusion proteins (human, UniProt O15294-3 315-1031); test: crystal structure; substrate peptide fused through a 3xGly linker to the N-terminus of OGT 315-1031 (one chain); about 10 mg/ml protein with 5 mM UDP, sitting drop, 0.1 M Tris pH 8.5; one molecule per asymmetric unit; conditions: both partners purified
T1 construct: human O-GlcNAc transferase (OGT), codon-optimised, residues 315-1031 starting at Thr315; holds TPR repeats and the catalytic domain; In the crystals this stretch is joined on one chain to the substrate peptide (m2 or m3) by a GGG linker; the whole chains are m4 and m5; also called hOGT; source: E. coli BL21 (DE3) pLysS, purified (Ni-NTA, anion exchange, gel filtration) as part of the fusion …
T1 sequence (looked up): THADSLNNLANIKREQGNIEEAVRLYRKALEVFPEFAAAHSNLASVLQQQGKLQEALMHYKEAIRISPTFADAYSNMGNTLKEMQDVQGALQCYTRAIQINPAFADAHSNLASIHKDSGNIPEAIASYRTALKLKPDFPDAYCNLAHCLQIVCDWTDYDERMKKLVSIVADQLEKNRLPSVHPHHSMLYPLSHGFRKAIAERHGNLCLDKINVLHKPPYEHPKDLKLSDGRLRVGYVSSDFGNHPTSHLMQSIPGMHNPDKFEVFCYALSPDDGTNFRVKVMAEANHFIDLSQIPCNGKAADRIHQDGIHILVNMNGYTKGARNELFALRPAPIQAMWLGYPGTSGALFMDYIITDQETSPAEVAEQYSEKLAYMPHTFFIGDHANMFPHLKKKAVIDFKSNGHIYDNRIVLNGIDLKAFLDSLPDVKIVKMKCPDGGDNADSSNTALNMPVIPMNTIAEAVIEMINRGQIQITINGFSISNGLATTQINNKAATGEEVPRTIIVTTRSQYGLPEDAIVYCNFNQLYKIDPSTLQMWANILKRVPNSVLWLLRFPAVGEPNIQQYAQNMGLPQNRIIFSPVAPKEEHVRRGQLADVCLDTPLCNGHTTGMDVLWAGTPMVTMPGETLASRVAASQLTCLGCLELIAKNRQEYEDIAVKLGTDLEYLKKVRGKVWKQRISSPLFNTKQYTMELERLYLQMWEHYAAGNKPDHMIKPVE

[2] = target: T2, His6-hOGT (312-1031), wild type (human) (UniProt O15294)
T2 sequence: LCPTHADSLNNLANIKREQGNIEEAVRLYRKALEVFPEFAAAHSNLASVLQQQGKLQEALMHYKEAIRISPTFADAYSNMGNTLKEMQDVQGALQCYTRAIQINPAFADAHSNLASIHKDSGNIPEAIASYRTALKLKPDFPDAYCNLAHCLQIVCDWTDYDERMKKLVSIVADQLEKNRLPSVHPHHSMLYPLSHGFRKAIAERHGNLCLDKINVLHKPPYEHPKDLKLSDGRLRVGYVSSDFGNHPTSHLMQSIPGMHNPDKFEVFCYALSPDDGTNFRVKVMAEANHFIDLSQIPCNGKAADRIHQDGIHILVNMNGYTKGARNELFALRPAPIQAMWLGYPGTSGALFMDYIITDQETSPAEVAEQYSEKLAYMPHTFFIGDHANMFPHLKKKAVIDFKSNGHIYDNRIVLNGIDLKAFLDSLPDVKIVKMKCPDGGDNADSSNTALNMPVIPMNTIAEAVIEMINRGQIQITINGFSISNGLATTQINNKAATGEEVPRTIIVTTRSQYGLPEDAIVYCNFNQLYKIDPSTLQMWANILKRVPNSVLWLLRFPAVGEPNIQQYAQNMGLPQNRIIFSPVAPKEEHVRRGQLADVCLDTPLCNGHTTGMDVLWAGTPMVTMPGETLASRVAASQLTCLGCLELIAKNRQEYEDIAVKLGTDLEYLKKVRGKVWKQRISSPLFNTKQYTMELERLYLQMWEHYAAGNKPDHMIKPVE

[3] = target: His6-hOGT (312-1031) 5N5A quintuple mutant (human) (UniProt O15294)

B1: 18-mer TAB1 peptide derived from the S395 glycosylation site (VPYSSAQSTSKTSVTLSL) (peptide)
peptide: VPYSSAQSTSKTSVTLSL
modifications: also: O-GlcNAc on Ser395
notes: In the crystal its C-terminus is joined by a GGG linker to Thr315 of OGT on one chain; the whole chain is m5; Extra density near Ser396 and Ser399 hints at further glycosylation; also called TAB1 C-terminal domain; source: E. coli BL21 (DE3) pLysS, purified (Ni-NTA, anion exchange, gel filtration) as part of the fusion protein
binding result [1]: binds

B3: TAB1 (7-409) protein (domain or fragment)
chain: SLLQSEQQPSWTDDLPLCHLSGVGSASNRSYSADGKGTESHPPEDSWLKFRSENNCFLYGVFNGYDGNRVTNFVAQRLSAELLLGQLNAEHAEADVRRVLLQAFDVVERSFLESIDDALAEKASLQSQLPEGVPQHQLPPQYQKILERLKTLEREISGGAMAVVAVLLNNKLYVANVGTNRALLCKSTVDGLQVTQLNVDHTTENEDELFRLSQLGLDAGKIKQVGIICGQESTRRIGDYKVKYGYTDIDLLSAAKSKPIIAEPEIHGAQPLDGVTGFLVLMSEGLYKALEAAHGPGQANQEIAAMIDTEFAKQTSLDAVAQAVVDRVKRIHSDTFASGGERARFCPRHEDMTLLVRNFGYPLGEMSQPTPSPAPAAGGRVYPVSVPYSSAQSTSKTSVTLSL
reduction of glycosyltransferase activity on TAB1 (7-409) against WT OGT, western blot with an O-GlcNAc Ser395 specific antibody, quantified [3]: 50%

Other lines, results leading:

KM of the TAB1 peptide in steady-state kinetics of O-GlcNAc transfer (50 nM hOGT, 50 µM UDP-GlcNAc, UDP formation by fluorescence) [2]: 42 µM
Binder: KKPVSVPYSSAQSTSKTSVTLSL [free TAB1 peptide …]

binding result [1]: binds
B2: 18-mer HCF1PRO repeat peptide (PPCETHETGTTNTATTAT) (peptide)
peptide: PPCETHETGTTNTATTAT
notes: host cell factor 1 (HCF1), one repeat of the proteolytic processing domain; In the crystal its C-terminus is joined by a GGG linker to Thr315 of OGT on one chain; the whole chain is m4; The PreScission site of the vector was replaced by the peptide and linker; also called HCF1 peptide; host cell factor 1 PPD repeat; source: E. coli BL21 (DE3) pLysS, purified (Ni-NTA, anion exchange, gel …)
